Laboratory results from the supplement of paper PMC10567573.
± gives the standard deviation.

Test: protein stability index of a GFP-peptide fusion (GPS, HEK-293T) (PSI 1-6); higher = more stable
Settings: c terminus: a fixed tail appended
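Further: 24-mer peptide tiles fused after GFP, lentivirally expressed, FACS-sorted into six equal bins by GFP/DsRed ratio, decoded by Illumina sequencing, PSI is the read-weighted mean bin number.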

Sequence	protein stability index (treatment: DMSO)	protein stability index (treatment: MLN4924 1 uM, 8 h)
DYSHRQKEQDVEKELRDGGEQDTW [NFE2L1]	5.63 ± 0.5	5.46 ± 0.44
EAIPILRAALKLEPSNKTIHAELS [FKBP8]	2.49 ± 0.32	2.65 ± 0.14
EAVESRGGVPGGCVLVPRADLRLG [SMAD6]	4.07 ± 0.47	4.34 ± 0.17
ECKKLFQVPEEMSRCRNSYTEQEL [DLC1]	3.76 ± 0.092	4 ± 0.22
ECTQMDHLGCMHYTVRAPVGVAGL [ALDH8A1]	2.51 ± 0.37	2.68 ± 0.36
EDEGFLREEERPLPRRDFQRQVWL [KCNA3]	3.97 ± 0.1	4 ± 0.4
EDFTNTLRELGHAEHEITELTATF [PKD2L1]	4.43 ± 0.34	4.22 ± 0.091
EDILNDPSQSEVMGEPHLMVEYKL [POMP]	3.7 ± 0.17	3.72 ± 0.18
EDQEEWHAQVVEELSNFKSQKVLG [ZBED1]	5.41 ± 0.21	5.54 ± 0.21
EDQKLQVLLTQIESKKHQVETAFE [TRIM15]	4.29 ± 0.22	4.51 ± 0.29
EDRIVTQNRVFAYLCKRVPHTVLD [CEP70]	2.27 ± 0.2	2.37 ± 0.37
EDTQRHETYHQQGQCQVLVQRSPW [TCAP]	4.03 ± 0.29	3.79 ± 0.17
EDVPLAAKLVDLPCVIESLRTLDK [TAF7L]	3.64 ± 0.29	3.48 ± 0.21
EEEEDDLSELPPLEDMGQPPAEEA [FKBP8]	5.63 ± 0.2	5.5 ± 0.38
EEFAQAESKDQGKTLALARTMDIP [ALDH8A1]	5.13 ± 0.19	5.38 ± 0.15
EEHLSPLDFLHSANFSLGSINQRL [RNF180]	3.17 ± 0.38	3.41 ± 0.24
EELRQEWEAKQEKIKSEEIEITFS [FAM50A]	4.98 ± 0.11	4.95 ± 0.35
EELTYIIKQDINSLNKQIAQLQDF [STX5]	2.61 ± 0.21	2.85 ± 0.26
EENALWEEERAFWMENNGHVAGEQ [CCDC70]	4.99 ± 0.22	5.29 ± 0.13
EESEPGTLVGNVAQDLGLKMTDLL [PCDHGC5]	4.34 ± 0.081	4.29 ± 0.55
EFARKGSCFLINTADRIIRVYDGR [RBBP5]	2.23 ± 0.67	2.24 ± 0.26
EFKRLASSKAHTSRFISANLPCNK [PTPRD]	2.88 ± 0.1	2.97 ± 0.41

Sequence	protein stability index (treatment: DMSO)	protein stability index (treatment: MLN4924 1 uM, 8 h)
EFPADISSITEAVPSESEPPALQN [NFE2L1]	5.31 ± 0.36	5.44 ± 0.22
EFPEDPEFEAVVRQAELAIERCIF [PI4K2A]	2.72 ± 0.1	2.96 ± 0.22
EFQPAKCTDKENALKLFPVQPCSA [FAM189A2]	3.97 ± 0.17	4.03 ± 0.51
EHIYDLRSLENYHFVDEHGKDQGI [CLINT1]	4.1 ± 0.25	4.08 ± 0.1
EIFVDCDINREQLNDIFHLLKSHT [TPH1]	2.19 ± 0.3	2.19 ± 0.35
EKEVLRRERAVEWRERAVEKRERA [ZBED2]	4.93 ± 0.44	4.95 ± 0.27
EKQMEEKRRANQKSSAQGPIPWFL [PPEF2]	3.71 ± 0.17	3.68 ± 0.32
ELAYLRKNHEEEMLALRGQTGGDV [KRT16]	4.26 ± 0.28	4.41 ± 0.17
ELLALETALGGQCVDRQEVAEITK [TCAP]	4.15 ± 0.26	4.5 ± 0.24
ELLCCTNVSTKEGIHLALVELLKN [INTS4]	2.19 ± 0.74	2.4 ± 0.41
ELLTGQPLWPGKSDVDQLYLIIRT [CDKL4]	2.31 ± 0.69	2.24 ± 0.43
EMFLYFEDHGLVTCSADHLIILWK [WDR41]	2.76 ± 0.4	2.68 ± 0.67
EPPQDSHSRKTVLIKTIETRNGEV [PRPH]	4.67 ± 0.28	4.79 ± 0.4
EPSSDPSLLGEPCAGPGFTHNIAH [SPAG8]	4.65 ± 0.074	4.52 ± 0.22
EPSSSKDSDENSKPSVDTEGPALV [MIA2]	5.53 ± 0.45	5.51 ± 0.25
EQHNWNIEAAVQDRLNEQEGVPSV [FAF2]	5.05 ± 0.22	5.17 ± 0.32
EQQRCLLLARLRELEQQIWKERDE [TRIM15]	3.03 ± 0.28	3.29 ± 0.36
ERAIETLIKNFHQYSVEGGKETLT [S100A14]	3.53 ± 0.23	3.41 ± 0.22
ERGVEGDFLIRDSESSPSDFSVSL [NCK2]	4.37 ± 0.2	4.26 ± 0.25
ERMTTREKKVLEAGMGKVTSASFG [HDAC6]	4.1 ± 0.14	4.19 ± 0.14
ERQDMYQCLVEGCTEKFKTSRDRK [ZNF511]	4.09 ± 0.48	4.29 ± 0.25
ERYEIDSLIGKGSFGQVVKAYDHQ [DYRK1B]	3.92 ± 0.21	4.02 ± 0.17

Sequence	protein stability index (treatment: DMSO)	protein stability index (treatment: MLN4924 1 uM, 8 h)
ERYFIPVSCFLTFNIFDWLGRSLT [SLC29A1]	2.77 ± 0.26	3.08 ± 0.46
ETCSCGYYLHPLPAGAEYCSSARH [SCNN1D]	3.52 ± 0.36	3.63 ± 0.43
EVSCQCQLHPPRWYSRLQACQWGG	2.17 ± 0.13	2.29 ± 0.4
EVTDKEQEFAARAAKQLEYQQLED [EPB41L3]	5.65 ± 0.27	5.62 ± 0.33
EVYQEVQAMFDTLGIPKSTTSDIP [FAM98B]	3.09 ± 0.31	3.5 ± 0.49
EWAALGNMSKEDAMVEFVKLLNRC [ACBD3]	2.48 ± 0.22	2.59 ± 0.3
FDFDDDGTLNREDLSRLVNCLTGE [CIB1]	4.21 ± 0.21	4.29 ± 0.34
FDRVDENNPEYLRERNMAPDLRQD [ADD1]	5.1 ± 0.064	5.32 ± 0.25
FDTLATVGTGTFGRVHLVKEKTAK [PRKX]	4.66 ± 0.22	4.54 ± 0.41
FEFEVRVCDSCHEAITDEERAPTA [WDFY2]	3.48 ± 0.33	3.57 ± 0.086
FEKWEQETAAGKGKGEARARLKRS [SMTNL2]	4.87 ± 0.15	5.07 ± 0.21
FERLCLTWMFFFMMCVAERTYKQR [PHTF1]	2.82 ± 0.54	3.3 ± 0.49
FEYSTIKCRDLSALMHELSNDGAR [BTBD10]	2.53 ± 0.31	2.57 ± 0.41
FFGMAFNFIVNDSRKKPIWNVLMW [SOAT1]	2.6 ± 0.55	2.19 ± 0.73
FFLAILSCSEICYTFIIVPKMLVD [OR10K2]	3.42 ± 0.36	2.89 ± 0.28
FFNTLHVGGTIRTCQKFLIQYNRR [POP5]	2.02 ± 0.19	2.06 ± 0.23
FGGPFVESSTREVVFPYTSKSCMR [RHOBTB2]	2.54 ± 0.8	2.98 ± 0.75
FIALLILFILSTLVVDYIDEGRLV [SOAT1]	3.18 ± 0.3	3.26 ± 0.5
FIYMVLSLFIALITGAYDTIKHPG [MCOLN1]	2.94 ± 0.21	2.85 ± 0.28
FLDIPRSRLVKYPLLLKEILKHTP [NET1]	1.99 ± 0.55	2.34 ± 0.18
FLMDLPSAGRSMPEASDQEEHLSP [RNF180]	4.82 ± 0.21	5.08 ± 0.14
